We go through 2 molecules from patent publication US20130177570A1 (PURDUE RESEARCH FOUNDATION, published 2013).

The EC50 is the midpoint of the concentration-response curve.

Test [1] addresses T1, recombinant human folate receptor beta (FRβ), residues 22 to 236 (human, UniProt P14207 22-236).
T1 construct: Produced in SF9 insect cells with baculovirus, then purified by nickel column and gel filtration; also called recombinant FRβ; FRβ protein
Description: ELISA, recombinant FRβ coated, Fab detected with anti-FLAG-HRP. How it is done:
To characterize the m909 antibody, an ELISA was performed as follows. FRβ, diluted in PBS, was coated on half of the wells of a 96 well plate at 50 ng/well overnight at 4° C. Wells were blocked with 100 μl of 4% milk/PBS (MPBS) for 1 hr at 37° C. For Fab binding kinetics, Fab was titrated from 3000 nM to 0.038 nM (1:5 serial dilutions) then 50 μl of diluted Fab was added to duplicate wells. After 2 hr incubation at 37° C., the wells were washed four times with PBST (PBS+0.05% Tween 20). Bound Fab was detected by incubating with anti-FLAG-horseradish peroxidase (HRP) mAb (1:1000) (Sigma) for 1 hr at 37° C. Wells were washed again with PBST. The HRP substrate 2,2′-azino-bis(3-ethylbenzthiazoline-6-sulphonic acid) (ABTS) was added (50 μl/well), and the absorbance at 405 nm was determined. For ELISA with IgG, a goat anti-human Fc IgG conjugated with HRP was used at 1:1000. FIG. 3 is a graph depicting the binding of m909 IgG₁ to FRβ.
(In general: ELISA stands for enzyme-linked immunosorbent assay.)

The target of test [2] is T1, recombinant human folate receptor beta …. Description: phage display panning and screening on coated FRβ protein. As to the method:
Purified FRβ was used for panning of a human naïve (not deliberately immunized) Fab phage library. Briefly, 2 μg of FRβ was coated on a Maxisorp plate, which was then incubated with library phage (˜10¹² pfu) for 2 hr. After extensively washing the wells with PBS+0.05% Tween 20 (PBST), phage were rescued by incubating with exponentially growing TG1 bacteria and helper phage. The panning procedure was repeated three more times with more stringent conditions in the latter two rounds, including decreased amounts of FRβ protein and additional washes with PBST. Three hundred colonies were picked from the last two rounds of panning and rescued with helper phage.

T1 sequence (P14207 other isoform, or with tags, fused parts or gaps): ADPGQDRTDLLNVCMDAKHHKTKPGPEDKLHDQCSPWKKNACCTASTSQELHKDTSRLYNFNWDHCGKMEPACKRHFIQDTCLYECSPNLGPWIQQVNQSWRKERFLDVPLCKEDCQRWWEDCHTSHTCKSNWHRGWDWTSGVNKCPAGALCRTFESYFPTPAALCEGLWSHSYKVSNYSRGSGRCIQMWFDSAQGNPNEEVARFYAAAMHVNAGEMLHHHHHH

B1: m909 Fab (Fab, V domains shown)
VH: EVQLVQSGAEVKKPGASVKVSCKASGYTFTSYAMHWVRQAPGQRLEWMGWINAGNGNTKYSQKFQGRVTITRDTSASTAYMELSSLRSEDTAVYYCARDISYGSFDYWGQGTLVTVSS
VL: SSELTQDPAVSVALGQTVRITCQGDSLRSNYANWYQQKPGQAPVLVIYGQNNRPSGIPDRFSGSSSGNTASLTITGAQAADEADYYCDSRVSTGNHVVFGGGTKLTVLG
notes: Soluble Fab expressed in E. coli HB2151; The phagemid adds His6 and FLAG tags at the C-terminus of the Fab
As to B1, the EC50 in test [1] was 20 nM.

B2: m923 (Fab, V domains shown)
VH: B1 VH
VL: SSELTQDPAVSVALGQTVRITCQGDNLRSYYASWYRQKSGQAPVLVIYGKNNRPSGIPDRFSGSSSGNTASLTITAAQAEDEADYYCHSRKSRGNHLLFGGGTKLTVLG
notes: Clone from the Fab phage library after light chain shuffling; also called clone m923
Consider B2, for which the binding result in test [2] is on record as “binds”.
